Measurements: patent US20100113304A1 (Pfizer, published 2010)
Numbering of substitutions follows the chain as printed. Blank lines part the entries; values can stand above or below the binder they belong to.

Target: T1, biotin labeled hRAGE-Fc (human, UniProt Q15109 24-344, limits assumed, biotin labeled (site not stated))
T1 construct: Biotinylated in selections and HTRF; also called Biotin-labeled RAGE-Fc; biotinylated RAGE-FC; not shown: Fc part, not described
Experiment: HTRF competition on biotinylated hRAGE-Fc; scFv titrated; competitor Eu-cryptate-labeled parental XT-M4 antibody

T1 sequence (Q15109 24-344 limits assumed): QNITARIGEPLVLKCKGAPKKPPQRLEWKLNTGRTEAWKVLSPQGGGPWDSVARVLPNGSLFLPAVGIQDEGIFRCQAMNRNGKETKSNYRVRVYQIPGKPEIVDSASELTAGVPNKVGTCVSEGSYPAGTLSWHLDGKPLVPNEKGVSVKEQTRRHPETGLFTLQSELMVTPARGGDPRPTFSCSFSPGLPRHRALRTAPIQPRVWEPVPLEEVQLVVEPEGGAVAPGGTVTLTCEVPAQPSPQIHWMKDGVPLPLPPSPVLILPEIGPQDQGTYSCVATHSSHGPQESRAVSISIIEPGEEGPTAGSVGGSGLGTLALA

IC50: 1.31 nM
B1: 3B4 scFv (scFv)
chain: DIQMTQSPSSLSASVGDRVTITCRASQDVGIYVNWFQQKPGKAPRRLIYRATNLADGVPSRFSGSRSGTDFTLTISSLQPEDFATYYCLEFDEHPLTFGGGTKVEIKDGGGSGGGGSGGGGSSEVQLVESGGGLVQPGGSLRLSCAASGFTFNNYWMTWVRQAPGKGLEWVASIDNSGDNTYYPDSVKDRFTISRDNAKNSLYLQMNSLRAEDTAVYYCARGGDIREGLRYWGQGTLVTVSS

IC50: 1.46 nM
B2: 6D5 scFv (scFv)
chain: B1 chain with R226K, E227V, G228S, R230D, Y231Q
